According to paper PMC11655445:

B1: PTTG1IP (pituitary tumor-transforming gene 1 protein-interacting protein): 2NQ (protein)
parent chain: MAPGVARGPTPYWRLRLGGAALLLLLIPVAAAQEPPGAACSQNTNKTCEECLKNVSCLWCNTNKACLDYPVTSVLPPASLCKLSSARWGVCWVNFEALIITMSVVGGTLLLGIAICCCCCCRRKRSRKPDRSEEKAMREREERRIRQEERRAEMKTRHDEIRKKYGLFKEENPYARFENN
B2: PTTG1IP (pituitary tumor-transforming gene 1 protein-interacting protein): N45Q (protein)
parent chain: B1 parent chain
B3: PTTG1IP (pituitary tumor-transforming gene 1 protein-interacting protein): N54Q (protein)
parent chain: B1 parent chain

Legend:
Conditions in all cases: glycan lost; control: WT PTTG1IP-GFP
[1] = anti-GFP Western blot of cell lysates
[2] = anti-GFP Western blot of isolated EVs
[3] = median fluorescence intensity of GFP+ EVs
[4] = single-vesicle analysis, GFP+ EVs in conditioned media

Protein | expression_or_secretion [1] | localisation_or_trafficking [2] | localisation or trafficking, percent of wt [3] [%] | localisation_or_trafficking, other: % GFP+ vesicles [4]
B1 | no change | decreases | 48 | decreases, 27.2 vs 84
B2 | no change |  |  | decreases, 43.6 vs 84
B3 | no change |  |  | decreases, 45.7 vs 84
